Laboratory results from patent US20260125469A1 (Hoffmann-La Roche, published 2026).
Residue numbers refer to the chain shown, from its start. Names and notes keep the numbering of the source. Where two headings read alike, the source gives them in different places.

B1: GPRC5D-TCB, GPRC5D CD3 variant P033.078 (bispecific antibody, human IgG1, kappa, L234A L235A)
heavy 1: not shown
heavy 2: EVQLVESGGGVVQPGRSLRLSCAASGFSFSNYGMAWVRQAPGKGLEWVASISTGGGNTYYRDSVKGRFTISRDNAKNTLYLQMNSLRAEDTAVYYCTRHDRGGLYWGQGTMVTVSSASTKGPSVFPLAPSSKSTSGGTAALGCLVEDYFPEPVTVSWNSGALTSGVHTFPAVLQSSGLYSLSSVVTVPSSSLGTQTYICNVNHKPSNTKVDEKVEPKSCDKTHTCPPCPAPEAAGGPSVFLFPPKPKDTLMISRTPEVTCVVVDVSHEDPEVKFNWYVDGVEVHNAKTKPREEQYNSTYRVVSVLTVLHQDWLNGKEYKCKVSNKALGAPIEKTISKAKGQPREPQVCTLPPSRDELTKNQVSLSCAVKGFYPSDIAVEWESNGQPENNYKTTPPVLDSDGSFFLVSKLTVDKSRWQQGNVFSCSVMHEALHNHYTQKSLSLSP
light 1: DIVMTQSPLSLPVTPGEPASISCRSSKSLLHSNGITYVYWYLQKPGQSPQLLIYRMSNRASGVPDRFSGSGSGTDFTLKISRVEAEDVGVYHCGQLLENPYTFGQGTKLEIKRTVAAPSVFIFPPSDRKLKSGTASVVCLLNNFYPREAKVQWKVDNALQSGNSQESVTEQDSKDSTYSLSSTLTLSKADYEKHKVYACEVTHQGLSSPVTKSFNRGEC
light 2: EVQLLESGGGLVQPGGSLRLSCAASGFTFESYAMNWVRQAPGKGLEWVSRIRSKYNEYATYYADSVKGRFTISRDDSKNTLYLQMNSLRAEDTAVYYCVRASNFPSSFVSYFGYWGQGTLVTVSSASVAAPSVFIFPPSDEQLKSGTASVVCLLNNFYPREAKVQWKVDNALQSGNSQESVTEQDSKDSTYSLSSTLTLSKADYEKHKVYACEVTHQGLSSPVTKSFNRGEC
notes: 2+1 IgG CrossFab, inverted; human IgG1 Fc, knob-into-hole, PGLALA; also called P033.078 in GPRC5D-TCB format
B2: TYRP1-TCB with anti-CD3 antibody clone P033.078 (bispecific antibody, human IgG1, kappa, L234A L235A)
heavy 1: not shown
heavy 2: QVQLVQSGAEVKKPGASVKVSCKASGFNIKDYFLHWVRQAPGQGLEWMGWINPDNGNTVYAQKFQGRVTMTADTSTSTVYMELSSLRSEDTAVYYCTRRDYTYEKAALDYWGQGTLVTVSSASTKGPSVFPLAPSSKSTSGGTAALGCLVEDYFPEPVTVSWNSGALTSGVHTFPAVLQSSGLYSLSSVVTVPSSSLGTQTYICNVNHKPSNTKVDEKVEPKSCDKTHTCPPCPAPEAAGGPSVFLFPPKPKDTLMISRTPEVTCVVVDVSHEDPEVKFNWYVDGVEVHNAKTKPREEQYNSTYRVVSVLTVLHQDWLNGKEYKCKVSNKALGAPIEKTISKAKGQPREPQVCTLPPSRDELTKNQVSLSCAVKGFYPSDIAVEWESNGQPENNYKTTPPVLDSDGSFFLVSKLTVDKSRWQQGNVFSCSVMHEALHNHYTQKSLSLSP
light 1: DIQMTQSPSSLSASVGDRVTITCRASGNIYNYLAWYQQKPGKVPKLLIYDAKTLADGVPSRFSGSGSGTDFTLTISSLQPEDVATYYCQHFWSLPFTFGQGTKLEIKRTVAAPSVFIFPPSDRKLKSGTASVVCLLNNFYPREAKVQWKVDNALQSGNSQESVTEQDSKDSTYSLSSTLTLSKADYEKHKVYACEVTHQGLSSPVTKSFNRGEC
light 2: B1 light 2
notes: human IgG1 Fc, knob-into-hole, P329G L234A L235A; also called P033.078 in TCB format
B3: GPRC5D-TCB, GPRC5D CD3 variant P035.093 (bispecific antibody, human IgG1, kappa, L234A L235A)
heavy 1: not shown
heavy 2: B1 heavy 2
light 1: B1 light 1
light 2: B1 light 2 with E30S, E57N, S106A, F108Y, G113A
notes: 2+1 IgG CrossFab, inverted; human IgG1 Fc, knob-into-hole, PGLALA; also called P035.093 in GPRC5D-TCB format
B4: GPRC5D-TCB, GPRC5D CD3 variant P004.042 (bispecific antibody, human IgG1, kappa, L234A L235A)
heavy 1: not shown
heavy 2: B1 heavy 2
light 1: B1 light 1
light 2: B1 light 2 with T28Q, E30D, S31N, S53T, S106Q, F108Y
notes: 2+1 IgG CrossFab, inverted; human IgG1 Fc, knob-into-hole, PGLALA; also called P004.042 in GPRC5D-TCB format

How the values were obtained:
[1] = biological target: human CD3 on cells (CD3ε) (human, UniProt P07766 23-207); test: cell-based or functional assay
Sequence of human CD3 on cells (CD3ε) (P07766 23-207 limits assumed): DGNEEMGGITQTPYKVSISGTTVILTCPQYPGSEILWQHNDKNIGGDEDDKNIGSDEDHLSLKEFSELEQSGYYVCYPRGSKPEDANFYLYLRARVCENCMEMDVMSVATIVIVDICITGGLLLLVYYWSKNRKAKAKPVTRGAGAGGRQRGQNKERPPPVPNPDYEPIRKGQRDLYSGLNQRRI

[2] = biological target: T1, Human CD3ε stalk-Fc(knob)-Avi/CD3δ stalk-Fc(hole) (human); test: SPR, TCB captured by anti-PG antibody, antigen as analyte, 25°C
T1 construct: Heterodimer of CD3 delta and CD3 epsilon ectodomains fused to human Fc with knob-into-hole; also called human CD3ε/δ; CD3 antigen
Source text: (§1) For affinity measurements, TCB molecules were captured on a C1 sensorchip (GE Healthcare) surface with immobilized anti-Fc(P329G) IgG (an antibody that specifically binds human IgG₁ Fc(P329G); “anti-PG antibody”—see WO 2017/072210, incorporated herein by reference). The experimental setup is schematically depicted in FIG. 3. Capture IgG was coupled to the sensorchip surface by direct immobilization of around 400 resonance units (RU) using the standard amine coupling kit (GE Healthcare Life Sciences).
(§2) Kinetic constants were derived using the Biacore T200 Evaluation Software (GE Healthcare Life Sciences), to fit rate equations for 1:1 Langmuir binding by numerical integration. The half-life (t_{1/2}) of the interaction was calculated using the formula t_{1/2}=ln2/koff.
(§3) To analyze the interaction to CD3, TCB molecules were captured for 240 s at 25 nM with a flow rate of 10 μl/min. Human and cynomolgus CD3F stalk-Fc(knob)-Avi/CD36-stalk-Fc(hole) were passed at a concentration of 0.14-100 nM with a flow rate of […] through the flow cells for 240 s. The dissociation was monitored for 800 s.

[3] = biological target: T2, Cynomolgus CD3ε stalk-Fc(knob)-Avi/CD3δ stalk-Fc(hole) (cynomolgus); test: as above
T2 construct: also called cynomolgus CD3ε/δ
Source text: as §1, §2, §3

[4] = biological target: T1, Human CD3ε stalk-Fc(knob)-Avi/CD3δ …; test: SPR on immobilized human CD3ε/δ after stress, relative to sample kept at -80°C pH 6
Procedure: (§4) In order to assess the effect of the deamidation site removal and its effect on the stability of the antibodies, the optimized anti-CD3 antibodies (in TCB format) were incubated for 14 days at 37° C., pH 7.4 and at 40° C., pH 6 and further analyzed by SPR for their binding capability to human CD3ε/δ. Samples stored at −80° C. pH 6 were used as reference. The reference samples and the samples stressed at 40° C. were in 20 mM His, 140 mM NaCl, pH 6.0, and the samples stressed at 37° C. in PBS, pH 7.4, all at a concentration of 1.0 mg/ml. After the stress period (14 days) samples in PBS were dialyzed back to 20 mM His, 140 mM NaCl, pH 6.0 for further analysis.
(§5) All SPR experiments were performed on a Biacore T200 instrument (GE Healthcare) at 25° C. with HBS-P+ (10 mM HEPES, 150 mM NaCl pH 7.4, 0.05% Surfactant P20) as running and dilution buffer. Biotinylated human CD3ε/δ (see Example 3, SEQ ID NOs 41 and 42) as well as biotinylated anti-huIgG (Capture Select, Thermo Scientific, #7103262100) were immobilized on a Series S Sensor Chip SA (GE Healthcare, #29104992), resulting in surface densities of at least 1000 resonance units (RU). Anti-CD3 antibodies with a concentration of 2 μg/ml were injected for 30 s at a flow rate of 5 μl/min, and dissociation was monitored for 120 s. The surface was regenerated by injecting 10 mM glycine pH 1.5 for 60 s. Bulk refractive index differences were corrected by subtracting blank injections and by subtracting the response obtained from a blank control flow cell. For evaluation, the binding response 5 seconds after injection end was taken. To normalize the binding signal, the CD3 binding was divided by the anti-huIgG response (the signal (RU) obtained upon capture of the CD3 antibody on the immobilized anti-huIgG antibody). The relative binding activity was calculated by referencing each temperature stressed sample to the corresponding, non-stressed sample.
The experiment was performed as described in Example 4, using the TCB molecules prepared in Example 7.

[5] = biological target: T3, human GPRC5D on stably transduced CHO-K1 cells (human, UniProt Q9NZD1 1-345); test: flow cytometry on CHO-K1 cells stably transduced with human GPRC5D, performed as in Example 11
T3 construct: whole, on cells; also called CHO-hGPRC5D cells
T3 sequence (Q9NZD1 whole entry): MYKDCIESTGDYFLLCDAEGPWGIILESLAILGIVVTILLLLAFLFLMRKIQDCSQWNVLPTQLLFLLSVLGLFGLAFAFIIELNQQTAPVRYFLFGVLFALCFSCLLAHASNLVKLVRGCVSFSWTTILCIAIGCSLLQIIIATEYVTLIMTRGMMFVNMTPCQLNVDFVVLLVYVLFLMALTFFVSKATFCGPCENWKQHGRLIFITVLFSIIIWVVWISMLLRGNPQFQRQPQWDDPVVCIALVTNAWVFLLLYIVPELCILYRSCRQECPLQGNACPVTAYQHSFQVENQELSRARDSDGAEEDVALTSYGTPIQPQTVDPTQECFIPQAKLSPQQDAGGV
Procedure: The binding of the CEACAM5-TCB molecules prepared in Example 7 was tested on CEACAM5 (CEA)-positive tumor cells (LS-180 cells, ECACC #87021202) and CD3-expressing immortalized T lymphocyte cells (GloResponse Jurkat NFAT-RE-luc2P; Promega, #CS176501). Briefly, adherent LS-180 cells were detached, using Cell Dissociation Buffer (Gibco), counted, checked for viability and re-suspended at 2 million cells per ml in FACS buffer (PBS with 0.1% BSA). Likewise, Jurkat suspension cells were harvested and plated for subsequent stainings. 100 μl of the cell suspension (containing 0.2 million cells) were incubated in round-bottom 96-well plates for 30 min at 4° C. with increasing concentrations of the CEACAM5-TCB molecules (4 pM-300 nM). Cells were washed twice with cold PBS 0.1% BSA (FACS buffer), re-incubated for further 30 min at 4° C. with the Alexa Fluor 647-conjugated AffiniPure F(ab′)2 Fragment Goat Anti-Human IgG, Fcγ Fragment Specific Antibody (Jackson Immuno Research Lab #109-606-008, diluted 1:50 in FACS buffer) and washed twice with cold PBS 0.1% BSA thereafter. The staining was fixed for 20 min at 4° C. in the dark, using 150 μl of 2% PFA in FACS buffer per well. Fluorescence was analyzed by FACS using a FACS Fortessa (Software FACS Diva). Binding curves were obtained using GraphPadPrism6.
The binding of the GPRC5D-TCB molecules prepared in Example 7 was tested using CHO-transfectants stably transduced to express human GPRC5D (CHO-K1, ATCC) and CD3-expressing immortalized T lymphocyte cells (GloResponse Jurkat NFAT-RE-luc2P; Promega, #CS176501). The experiment was performed as described in Example 11.

[6] = biological target: T1, Human CD3ε stalk-Fc(knob)-Avi/CD3δ …; test: SPR, TCB captured by anti-PG antibody, antigen as analyte, 25°C; remark: listed apart in the source
[7] = biological target: T1, Human CD3ε stalk-Fc(knob)-Avi/CD3δ …; test: as above; remark: listed apart in the source
Source text: as §1
(§6) To analyze the interaction to CD3, TCB molecules were captured for 80 s at 25 nM with a flow rate of 10 μl/min. […] The dissociation was monitored for 800 s.
as §2

[8] = biological target: T2, Cynomolgus CD3ε stalk-Fc(knob)-Avi/CD3δ …; test: as above; remark: listed apart in the source
Source text: as §1, §6, §2

[9] = biological target: T1, Human CD3ε stalk-Fc(knob)-Avi/CD3δ …; test: SPR on immobilized human CD3ε/δ after stress, relative to sample kept at -80°C pH 6; remark: listed apart in the source
Procedure: as §4, §5

Row | Binder | EC50 20 h (pM), T-cell mediated lysis of GPRC5D-expressing NCI-H929 cells [1] [pM] | Kd [2] [nM] | koff [2] [s⁻¹] | kon [2] [M⁻¹ s⁻¹] | t1/2 [2] [min] | Kd [3] [nM] | koff [3] [s⁻¹] | kon [3] [M⁻¹ s⁻¹] | t1/2 [3] [min] | binding activity [%] after 2 weeks at pH 6.0/40°C [4] [%] | binding activity [%] after 2 weeks at pH 7.4/37°C [4] [%] | binding result [5] | further results
1 | B1 | 0.41 | 0.547 | 0.000948 | 1.74e+06 | 12.2 | 0.333 | 0.000688 | 2.07e+06 | 16.8 | 99 | 98 | binds | 
2 | B2 |  |  |  |  |  |  |  |  |  |  |  |  | fold higher binding half-life than CD3orig [6]: ≤ 6 fold; Kd [7]: 0.6 nM; koff [7]: 0.000996 s⁻¹; kon [7]: 1.66e+06 M⁻¹ s⁻¹; t1/2 [7]: 11.6 min; Kd [8]: 0.37 nM; koff [8]: 0.000802 s⁻¹; kon [8]: 2.2e+06 M⁻¹ s⁻¹; t1/2 [8]: 14.4 min; binding activity [%] after 2 weeks at pH 6.0/40°C [9]: 99%; binding activity [%] after 2 weeks at pH 7.4/37°C [9]: 99%
3 | B3 | 0.31 | 0.377 | 0.0013 | 3.46e+06 | 8.89 | 0.241 | 0.000866 | 3.61e+06 | 13.3 | 100 | 97 | binds | 
4 | B4 | 0.87 | 1.21 | 0.00265 | 2.2e+06 | 4.36 | 0.599 | 0.00163 | 2.72e+06 | 7.09 | 100 | 99 | binds | 
